Measurements reported in patent US20240018260A1 (AMUNIX PHARMACEUTICALS, published 2024).

Legend:
[1] = biological target: T1, recombinant human EpCAM (rhEpCAM) (human, UniProt P16422 24-265); experiment: sandwich ELISA: rhEpCAM coated on plate, detection with biotin-conjugated protein L
T1 construct: Bought recombinant protein coated on the ELISA plate
T1 sequence (looked up): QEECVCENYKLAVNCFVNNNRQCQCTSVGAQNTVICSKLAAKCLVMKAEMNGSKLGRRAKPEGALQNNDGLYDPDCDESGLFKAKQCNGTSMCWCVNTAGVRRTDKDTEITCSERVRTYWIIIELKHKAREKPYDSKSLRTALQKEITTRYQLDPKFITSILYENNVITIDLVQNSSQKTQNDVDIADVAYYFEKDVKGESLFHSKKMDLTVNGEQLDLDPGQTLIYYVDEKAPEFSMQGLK
Procedure: (§1) The binding specificity of an anti-EpCAM×anti-CD3 ProTIA (e.g. AC1476) was evaluated in conjunction with the control ProTIA compositions anti-CEA×anti-CD3 ProTIA (e.g. AC1432) and anti-HER2×anti-CD3 ProTIA (e.g. AC1408), in a target antigen/biotin-conjugated protein-L sandwich ELISA. Both the anti-CEA×anti-CD3 ProTIA (AC1432) and the anti-HER2×anti-CD3 ProTIA (AC1408) bear the same anti-CD3 scFv component as the anti-EpCAM×anti-CD3 ProTIA (AC1476) albeit with different targeting component. In the ELISA binding assay, recombinant human EpCAM (rhEpCAM) (R&D Systems cat #960-EP-50), recombinant human CEA (Abcam cat #ab742) and recombinant human HER2 (AcroBiosystems cat #HE2-H525) were coated on a 96-well, flat-bottomed plate at a concentration of 0.1 microg/100 microL. After overnight incubation at 4° C., the assay plate was washed and blocked with 3% bovine serum albumin (BSA) for 1 h at room temperature. The plate was washed again followed by the introduction of a dose range (0.0007 to 0.5 nM, achieved with a 1:3 fold serial dilution scheme from a starting concentration of 0.5 nM) of protease-treated anti-EpCAM×anti-CD3 ProTIA (e.g. AC1476) to EpCAM-coated wells, CEA-coated wells and HER2-coated wells. […] After desired color intensity was reached, 0.2 N sulfuric acid was added to stop the reaction and absorbance (OD) was measured at 450 nm using a spectrophotometer. […]

[2] = biological target: human CD3 on purified human CD3 positive T cells (human, UniProt P07766 23-207); experiment: cell-based or functional assay
[3] = biological target: T2, human EpCAM on EpCAM positive human carcinoma cells (SW480, SK-OV-3) (human, UniProt P16422 24-314); experiment: cell-based or functional assay
T2 sequence (looked up): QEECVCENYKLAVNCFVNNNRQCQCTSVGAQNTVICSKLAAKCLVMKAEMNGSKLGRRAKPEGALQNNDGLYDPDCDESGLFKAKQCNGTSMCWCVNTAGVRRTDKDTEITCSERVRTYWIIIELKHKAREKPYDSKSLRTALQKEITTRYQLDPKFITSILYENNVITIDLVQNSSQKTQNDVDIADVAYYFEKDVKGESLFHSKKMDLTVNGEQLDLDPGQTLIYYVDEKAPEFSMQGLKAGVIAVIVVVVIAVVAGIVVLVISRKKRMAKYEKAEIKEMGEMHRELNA

[4] = biological target: T1, recombinant human EpCAM (rhEpCAM); experiment: sandwich ELISA: rhEpCAM coated on plate, detection with peroxidase-conjugated protein L
Procedure: The binding capability of anti-EpCAM×anti-CD3 ProTIA composition was verified with an EpCAM/peroxidase-conjugated protein-L sandwich ELISA. In the ELISA binding assay, recombinant human EpCAM (rhEpCAM) (Sino BiologicalR&D Systems cat #10694-H08H960-EP-50) was coated on a 96-well, flat-bottomed plate at a concentration of 0.1 microg/100 microL. After overnight incubation at 4° C., the assay plate was washed and blocked with 3% bovine serum albumin (BSA) for 1 h at room temperature. The plate was washed again followed by the introduction of a dose range of non-cleavable anti-EpCAM×anti-CD3 ProTIA (i.e., a ProTIA without the release segment cleavage sequence and AC1484, a ProTIA chimeric polypeptide assembly composition) and protease-treated and protease-untreated anti-EpCAM×anti-CD3 ProTIA (e.g. AC1476). The dose range utilized for non-cleavable and protease-treated and untreated ProTIA was 0.0006 to 5 nM, achieved with a 1:6 fold serial dilution scheme from a starting concentration of 5 nM. The plate was allowed to incubate with shaking for 1 h at room temperature to allow the non-cleavable, protease-cleaved and uncleaved ProTIA to bind to the rhEpCAM coated on the plate. Unbound components were removed with a wash step and a peroxidase-conjugated protein L (PierceThermoFisher Scientific cat #32420) was added. After an appropriate incubation period that allowed protein-L to bind to the kappa light of the scFvs, any unbound reagent was removed by a wash step followed by the addition of tetramethylbenzidine (TMB) substrate to each well. TMB is a chromogenic substrate of peroxidase. After desired color intensity was reached, 0.2 N sulfuric acid was added to stop the reaction and absorbance (OD) was measured at 450 nm using a spectrophotometer. The intensity of the color is proportional to the concentration of non-cleavable, protease-treated and untreated anti-EpCAM×anti-CD3 ProTIA captured by the rhEpCAM/protein-L sandwich ELISA. The intensity of the color produced (measured OD) was plotted against protein concentration; and the concentration of non-cleavable, protease-cleaved and uncleaved anti-EpCAM×anti-CD3 ProTIA that gave half-maximal response (EC₅₀) was derived with a 4-parameter logistic regression equation using GraphPad prism software.

recombinant human HER2 = biological target: T3, recombinant human HER2 (human, UniProt P04626 23-652); experiment: sandwich ELISA: antigen coated on plate, detection with biotin-conjugated protein L
T3 construct: Coated on the ELISA plate; also called HER2 antigen
Procedure: as §1

recombinant human CEA = biological target: T4, recombinant human CEA (human, UniProt P06731 35-685, limits assumed); experiment: as above
T4 construct: Coated on the ELISA plate; also called CEA antigen
T4 sequence (looked up): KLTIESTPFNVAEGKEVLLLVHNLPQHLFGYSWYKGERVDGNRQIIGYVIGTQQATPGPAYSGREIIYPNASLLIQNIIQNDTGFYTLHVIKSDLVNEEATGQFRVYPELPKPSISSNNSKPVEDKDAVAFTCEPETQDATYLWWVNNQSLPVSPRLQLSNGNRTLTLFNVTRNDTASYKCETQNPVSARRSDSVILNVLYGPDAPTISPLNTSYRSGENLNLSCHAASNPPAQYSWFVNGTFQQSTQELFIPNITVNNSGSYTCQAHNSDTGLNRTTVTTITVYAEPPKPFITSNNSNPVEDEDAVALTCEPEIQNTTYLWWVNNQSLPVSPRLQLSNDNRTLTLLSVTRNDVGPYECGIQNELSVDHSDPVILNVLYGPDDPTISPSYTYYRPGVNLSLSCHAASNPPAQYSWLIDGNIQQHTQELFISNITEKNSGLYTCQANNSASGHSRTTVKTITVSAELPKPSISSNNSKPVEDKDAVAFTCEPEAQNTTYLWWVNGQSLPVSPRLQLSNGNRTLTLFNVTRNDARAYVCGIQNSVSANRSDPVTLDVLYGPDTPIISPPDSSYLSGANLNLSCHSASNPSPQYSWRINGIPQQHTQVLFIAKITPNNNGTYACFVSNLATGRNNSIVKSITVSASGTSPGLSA
Procedure: as §1

[5] = biological target: T5, recombinant human CD3 (rhCD3εδ) (human, UniProt P07766 23-126; P04234 22-105); experiment: sandwich ELISA: rhCD3εδ coated on plate, detection with peroxidase-conjugated protein L
T5 chain: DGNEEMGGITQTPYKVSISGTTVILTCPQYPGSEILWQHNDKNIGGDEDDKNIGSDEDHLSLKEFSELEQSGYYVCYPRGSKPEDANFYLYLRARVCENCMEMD

B1: Protease-treated (MMP-9 cleaved) AC1476 anti-EpCAM×anti-CD3 ProTIA, released aEpCAM-aCD3 first portion (bispecific antibody)
chain: DIQMTQSPSSLSASVGDRVTITCRSTKSLLHSNGITYLYWYQQKPGKAPKLLIYQMSNLASGVPSRFSSSGSGTDFTLTISSLQPEDFATYYCAQNLEIPRTFGQGTKVEIKGATPPETGAETESPGETTGGSAESEPPGEGQVQLVQSGPGLVQPGGSVRISCAASGYTFTNYGMNWVKQAPGKGLEWMGWINTYTGESTYADSFKGRFTFSLDTSASAAYLQINSLRAEDTAVYYCARFAIKGDYWGQGTLLTVSSGGGGSDIQMTQSPSSLSASVGDRVTITCRASQDIRNYLNWYQQKPGKAPKLLIYYTSRLESGVPSRFSGSGSGTDYTLTISSLQPEDFATYYCQQGNTLPWTFGQGTKVEIKGATPPETGAETESPGETTGGSAESEPPGEGEVQLVESGGGLVQPGGSLRLSCAASGYSFTGYTMNWVRQAPGKGLEWVALINPYKGVSTYNQKFKDRFTISVDKSKNTAYLQMNSLRAEDTAVYYCARSGYYGDSDWYFDVWGQGTLVTVSSGTAEAASASGLSGRSDNHSPLG
notes: ESI-MS found 58,071 Da against a theoretical 58,067 Da; also called ProTIA-A; protease-treated anti-EpCAM×anti-CD3 ProTIA
[1]
  EC50: 0.11 nM
[2]
  EC50, LDH release cytotoxicity, purified human CD3 positive T cells:OVCAR-3 5:1: 0.0003 nM
  EC50, LDH release cytotoxicity, purified human CD3 positive T cells:SK-OV-3 5:1: 0.0024 nM
[3]
  EC50, LDH release cytotoxicity, PBMC:SK-OV-3 5:1: 0.003 nM
[4]
  EC50: 0.12 nM
Recombinant human HER2
  binding result: no binding (tested: 0.0007 to 0.5 nM (dose range tested))
Recombinant human CEA
  binding result: no binding (tested: 0.0007 to 0.5 nM (dose range tested))
[5]
  EC50: 0.31 nM
